According to patent publication US20250049972A1, “METHOD OF DETECTING PROSTATE CANCER IN A HUMAN SUBJECT USING A Cu 64 PSMA I&T INJECTION” (Curium US LLC, priority 2023, published 2025):

Design: species or system human
Conditions: in vivo
Protocol: Radiation dosimetry estimates for normal organs were determined for copper Cu-64 PSMA I&T based on biodistribution collected from the 12 patients enrolled in the trial. Whole-body PET/CT images acquired at 1 hour (±15 minutes), 4 hours (±30 minutes), and 24 hours (±2.0 hours) post injection were used together with blood samples collected prior to and 1, 2, 4, and 24 hours post injection and total voided urine samples collected for 0 to 1-hour and 1 to 4-hour intervals post injection.
This analysis was performed with the objective of estimation of radiation dosimetry of Cu-64 PSMA I&T based on bio-distribution determined using PET image data collected in twelve human subjects. […] The maximum deviation was 13%. Activities were normalized to 100% based on the first imaging time to prevent over or under estimation of absorbed dose.
Third, calculating Source Organ Time-Activity Bio-Kinetic Modeling using bio-distribution data for the listed organs utilizing the following Equation Three: […]
The bio-distribution data for the listed organs and remainder tissues in the study may be determined using the image quantification methodology described above. Organ and tissue data may be decay corrected to fit in a least squares sense using non-linear regression with sums of exponentials of the form shown in Equation Three.

O=C(O)CC[C@H](NC(=O)N[C@@H](CCCCNC(=O)CCCCCCC(=O)NCCCC[C@@H](NC(=O)[C@@H](Cc1ccccc1)NC(=O)[C@@H](Cc1ccc(O)c(I)c1)NC(=O)CC[C@H](C(=O)O)N1CCN(CC(=O)O)CCN(CC(=O)O)CCN(CC(=O)O)CC1)C(=O)O)C(=O)O)C(=O)O [Cu-64 PSMA I&T, 64 Cu-(3S, 7S, 26R, 29R, 32R, 37R)-29-benzyl-32(4-hydroxy-3-iodobenzyl)-5, 13, 20, 28, 31, 34-hexaoxo-37-(4,7,10-tris(carboxymethyl)-1,4,7, 10-tetraazacyclododecan-1-yl)-4,6, 12, 21, 27, 30, 33-heptaazaheptatriacontane-1,3,7, 26, 37-pentacarboxylic acid, metal not drawn]
Normalized Number of Disintegrations, Mean, Remainder (human): 6.9 h | Dose Estimate, Mean, Adrenals: 0.045 mGy/MBq | Dose Estimate, Mean, Brain: 0.011 mGy/MBq | Dose Estimate, Mean, Esophagus: 0.020 mGy/MBq | Dose Estimate, Mean, Eyes: 0.010 mGy/MBq | Dose Estimate, Mean, Gallbladder Wall: 0.051 mGy/MBq | Dose Estimate, Mean, Heart Wall: 0.055 mGy/MBq | Dose Estimate, Mean, Kidneys: 0.19 mGy/MBq | Dose Estimate, Mean, Lacrimal Glands: 0.16 mGy/MBq | Dose Estimate, Mean, Left colon: 0.25 mGy/MBq | Dose Estimate, Mean, Liver: 0.25 mGy/MBq | Dose Estimate, Mean, Lungs: 0.018 mGy/MBq | Dose Estimate, Mean, Osteogenic Cells: 0.018 mGy/MBq | Dose Estimate, Mean, Pancreas: 0.054 mGy/MBq | Dose Estimate, Mean, Pituitary: 0.037 mGy/MBq | Dose Estimate, Mean, Prostate: 0.027 mGy/MBq | Dose Estimate, Mean, Rectum: 0.15 mGy/MBq | Dose Estimate, Mean, Red Marrow: 0.023 mGy/MBq | Dose Estimate, Mean, Right colon: 0.22 mGy/MBq | Dose Estimate, Mean, Salivary Glands: 0.12 mGy/MBq | Dose Estimate, Mean, Small Intestine: 0.067 mGy/MBq | Dose Estimate, Mean, Spleen: 0.048 mGy/MBq | Dose Estimate, Mean, Stomach Wall: 0.063 mGy/MBq | Dose Estimate, Mean, Testes: 0.035 mGy/MBq | Dose Estimate, Mean, Thymus: 0.015 mGy/MBq | Dose Estimate, Mean, Thyroid: 0.015 mGy/MBq | Dose Estimate, Mean, Total Body: 0.022 mGy/MBq | Dose Estimate, Mean, Urinary Bladder Wall: 0.074 mGy/MBq | Normalized Number of Disintegrations, Mean, Heart wall: 0.17 h | Normalized Number of Disintegrations, Mean, Kidneys: 0.69 h | Normalized Number of Disintegrations, Mean, Lacrimal Glands: 0.0033 h | Normalized Number of Disintegrations, Mean, Liver: 5.0 h | Normalized Number of Disintegrations, Mean, Pancreas: 0.058 h | Normalized Number of Disintegrations, Mean, Pituitary: 0.00033 h | Normalized Number of Disintegrations, Mean, Prostate: 0.0047 h | Normalized Number of Disintegrations, Mean, Red Marrow: 0.28 h | Normalized Number of Disintegrations, Mean, Salivary glands: 0.12 h | Normalized Number of Disintegrations, Mean, Spleen: 0.096 h | Normalized Number of Disintegrations, Mean, Stomach Wall: 0.083 h | Normalized Number of Disintegrations, Mean, Testes: 0.015 h | Normalized Number of Disintegrations, Mean, Thyroid: 0.0035 h | Normalized Number of Disintegrations, Mean, Whole Body: 15 h
